Laboratory results reported in the DeepSol protein solubility set.

Assay: soluble on expression in E. coli; label from the status in PepcDB or PDB records

Sequence | soluble on expression in E. coli
MAHHHHHHMEVFNFGKYNGKTFEEVFEKHKSYVTWVKSLESPSGSLLDFKNYVLQKEGKKNSSNMANNNHYNNEKNSNNNYSNNMYENNVRSPNIYNEQYTNNNKMKENYDRNANMNNNEICTNNNRINENNVKSPHYYNNEKNINNYSHECNRSKIAYKHNYSENRNSYNNFEKSSVDTNYTNEEKKKFHNMNSSEYRNYEEKVMSDINNAYNQPEEKKEFDIIVAFEIFSDDSFKIVQKDNNNKKFVSFRNFISKDLFKIISELNPTLKKINNYTCITFEAEKYEYVLNNLKEKCTILGGVHTIPNFLLKCFKNYTKFSEPQRISEITANILTNTMCSYTKQHYDKLDHLLGEKLSVELRNFQREGVFFGLKKNGRVLIGDEMGLGKTLQALALMAFYKDDWPFIVVCPSSIRFQWKDQALRWLSHLIREEHICVVKNGKTDIPSNTKMIIISYELITKNDKYQDKYKSIICDESHYLKNSLSKRTKVITPIIKNAKRCVLLSGTPALNKPSELYEQISSIMPNFFNYHEFCDRYCFKDKNLYTKKIEYVGCKHTEELHLFLTNTIMIRRLKKDVLKELPDKLRSKIPVEIPQKELSEILNYYKKLESKKNINFHDIDNIHLSNWSNSKSEDGDDENLSISHLFKITGYAKVKAIKEYISYLIDADIKFLLFCHHKLVMDEVETFLKEQKCSYIRVDGLTPMEKREIYIKNFQNDDNVKIALLSITACGMGLNLTAANTVVFGELFWVPGQIIQAEDRAHRIGTAHDVVNIHYLIAQNTIDEIVWKIINRKWNTLTTALNGIEDSLNVKEVNKFDKFMVDLTNDTNKSYPTSLVTTPKVRRKSSEHGTFHNSSPKKKNRDIRDFFTANKCNESVEKSWNNNINKRSYHDSPMNDSPNTTLKFLSKKYKTEIN | not soluble
MAHHHHHHMEWVPCTEQTGSVGCREGHCATSLQEKSTGEEWVLVVGGYCEGERDGAVMAARADGLPMLRWVRLDKPNMTWFECDGASLTHVTGDTAYFFGGLNEHMNHSNQLLCLSLHQGQQGDLSLDVVKVETTGDVPLPRARHSAGSAGRYFVVFGGETEDAEQNNDGYILDTDTMVWTRIPTGHQVPNPRLLAGPLVFYSPHGCILYGGAHFVNGDIRSMSDVWNLHIPLGGTWFNVSYGDGAPACRFPRSNGHAGGVLGRVGGETVVVFVGGKDAAEGCDRVKQVQPPKSAEDKFHLRLVDPVLAGGEGPHWRYTPAAVDTRRGVLLLGGQCRHPQEVAAFLLKQTGVTLQR | not soluble
MAHHHHHHMEYDDGEYGRESSVEALAQSQESEQVASAASGLPESSSSAGSAKPSFRILSTRQLAQWARVRHQMDVGCSGNTVWTVSSAKHGNGVLHLMRHHDLNNFWQSDGVLPHVIRIQLGQLTPVEAMAVYVNSAVDQSYSPRVIRVKAGTHNGDMTEVAKADIGAGQECGWVLITLREMAGDDGDDVEGGGPNDGGGGVAAGVRIQHQQQEVRPRQQDGGAPEGGAASSYSPPIPYSEVAAALGHGNHATPSSAGVQTSAAMPRIPRSTSNPADRWLWCTLIDIYICENQFNGRDCHLRGIRLMGPRYEELERVSNADATGTVTCARPLQGGEPLEGTADELQLR | not soluble
MAHHHHHHMFKCATRCLLDTKTVPLKPQRPFKLHTAGRTDMAPLPTQAVYDAEQLKQSLALMFRIRRMESLCDQSYKLKKIRGFCHLYIGQEAIPAGMENVLTFEDPIITGYRDHGWYISRGGKPEDVFAEMFGRQGGCSKGKGGSMHMYRVDNGFYGGNGIVGAQVSIGAGLAWRFAMENRDSPKHVAVTFYGDGAANQGQIYESMNIAALQRLPVIFAVENNHFGMGTSAARGSYQAEFYRRGDYIPGIKVDGMDVLAVQEGTRYARDYCMSGKGPIVMELDCYRYMGHSMSDPDNQYRTKSDIQHVKQERDCIRKMREFMATEGIMTEDEMSKMEKDVKKEVDQDLQKAQKQPMTKLDELFTDIYVGEQYEHRTCQGTVYHKP | not soluble
MAHHHHHHMGANGSKTASSSSAVPAATTTTGDNKGTVNRWYGAVSDASDADLGLAPDVSLSSDISTPEENAAKRKAYAHLQSPYARHQLAASMKGRGSSGNNGAEASATAHVNLIEQIYNEDFETIDHIQALRLPPMVSQQLKNTVRSEAERRCAEVEKTMARCLQDKMWTSWKCQKERDTYYHCVEEIEQRNLRPDPTNPHWVDMLTSFRWKYNLGVFHGEIIGRNNIMKQIWREHYPDRELPHPWVKDA | not soluble
MAHHHHHHMGAPLREDPYNIKTPISDGTTIIGIIYEHGVMLACDTRTSSGTLVSNKCSRKINRINENIYACRSGASAHSQKVIELIKHFCLSMKCENRKKGRFHEDEVITDDLANEEDIDLSAINNPFGLAQNMDPNYVTKHKYFYEDKFMDFNPLVENVAHMTKKLLYANNHFLSCGLILGGYDKEKKQQLYSVNLNGSIVQRFDYAVSGSGSVYIQSYLQDKYKKNMSKKECFELILGCVKYAMYNDNSSGGIVRIVNMTKLFVEEFTVTNTQLHFDY | soluble
MAHHHHHHMGGAHNEGVQDGGAQDATTLYDELYLLFDEYIVRNCKQPNTYESLFCKKEFVQFAKLHGTSVVVTSPKKEIKNKDEIIDELIYAFKLFAKYTSMCDFFSKNEEVDDINTIYLKFLLIPYILGVLCYETISMEIRSDRLKEAKLYFGEFINVVNVYKIAPVEDYLLDEGGEVNQAMNRRNIKVKRAKDEKKLQDFYDDMIKMNVKKGSSQNYNHLCFADHMEEEQIREIYLSLIKCKCLQTLNMMDLIDTEIEVLEMRNRQQVQDKQHQNGKPTQGTKDTHDGQPPHQNKHPKDGIKKPWLFTIKKNMPLADMTQMRNYYRDLVFTPAHNLPTISLEECAKIEMEYALKGEGMAPRSEEERRGNPKSGTIKGAAQNGTDDEEDYEKSSKEESEKELMDREWDDWKDMHQKGIGNKNRNVA | soluble
MAHHHHHHMGIYIFCLFPKGGRESKWGKPTITTKKVQGMPFPHPSHHHHHYHQKQQKTHHCHPRCTLVFLRQARAHKAITPPDVQRRTQRLNAQGKTTKKKSYDDGPPFFLFEKKKKRKAERHKEKGEKEGKGNVNTYRIVKEKEKVNKYLIYFYNNNNNYYYTYVCVYIHTTT | not soluble
MAHHHHHHMGKAAKGRTAMPGKLDTTEADKRTPKSIIIYRGEVGIHVRSLMHEWRNVFLPWSSKKLHGKNKSLKDFLAVAATFSASHLQLFTAPSQGTSLRIMRFFNGPTLSFRVLSFTLHKEIVAKQRRPVAVDRAAWEVAPIVVLNNFTHPDLAHRAEVPLLTATFKALFPSLNVQTIQSSEIQRICLFHYDHVEHVVEVRHYYINARTVGVTKTVKKLLENRRPTKLGTLESIDEVLDREDAWSDTDG | not soluble
MAHHHHHHMGLKRLAKAAKITSKHMLLLNRREPYKPVTSDRVMIENRRRLEDFEAKNAEGIVFVPDTALPPWQKSIATNLKQQATQMNFRGFRVRVADKQDEPGFPTHFR | soluble
MAHHHHHHMGNTNSSADRSNADDRGVHSEFMYRYETTKKLKLSYMMLKKNVATAVMTMEVTPQHLRDVGTGYSNVCACLKHGGSGGTNSCIQGQAAGREQASISRSRIDREFADESYKGFQTFCEAMDDIKAGVCVTSRTAIHERITVELDRMVLTAERVLKQGRKTMRSMAHFTKVARQVSRRERAAVDQGKDLSSSKRYAKAVKERNEKESLYKTELEAFDQLYEHVMVVSQEFCSSTTDIFLDCIVGYYREIVATIDVSDTPQCSRLQSRFRSREREVVLHQASDAGFCAMPAGHMDGSKSLSSTVPLKWD | soluble
MAHHHHHHMGRLEIRVCGARNVANVQRVGKPDPYVKVKLGNSKKSQIKYKTHVAENCLNPVWNELFKFQVADYDSMQVVFELWNDNVIVDDLLGSYSLSLNGLTRGVVIDTWVLLEGTKGSSSELHLRVLAVDFGRDPGPGDRLTLSLEGDTMMPSTGQTYRPPKNYVPPTQGIVLQSYPPAPLGPPPPVVYSPSAAPRPQVQYGYVTPPQPQRYACGAPPPPPQQPPSQGYGYGAVQAPQNYSYGAPPPPQPMYGAPQLPQCLPYAAGPPPPQMYGPPPPQRRPVQMAYGIPPDM | not soluble
MAHHHHHHMGSKHPRGSTSAPAHEEEQQAHVDTEHHTEPPSFTAGPEVAEMQVTVTPTMPPTSMEQASMTVSGEGPSTLAVPKQQHLRHKSFTMTEVQQLISVNPDRTLVIIRDKVYDVTTFLASHPGGKSALRRNNGKDVTDAFFSMHSAMAVRKLPDFLIGELAPPESTSAAGEETPTAALVPARLRMADITKALSEDLNRIILILFSDAYDVTSMRDKHPGGLSVLVNNNGRECGDTFMRIHGLLAKEMVKQFYLGPVEGLAQGRSPLRPAVAAEVESTAITPAGPKAQSTRILEIESVNSTVTIRYFTFSCPKPLYMIPGGHIKLYSNLHEKESRFYTPFKTGVSSFTICMKHYPNGRTSGYLFDLKEGDEVFFDGPLPPSWQLNTDAAVQRAAPEERHVVLVGGGTGIAPLYSMSSNALETQFSSVTLVCSVRTPDDLILATELRQLANRYSTALPIQKHTLRIVLLFSRASPQDISVESTSFASHVLCGGRLTAESFKGTEIHPAQAVVVCGPPTFNDAVAAAVLEAGICTATQVHHL | not soluble
MAHHHHHHMGVDVGESAIGVDAVARPIGYGPFSAAAKARLAREKAHKAVETCDSAAAAASATVMKNVSLDTNLYLRLSLAGLPHPSQLQEWAYTSPEWRLAFVRLYRTILRLHNKAVAVSLRTARRQGSEAALSAATGMRATSQTTVAGAAVAATGADNSLAEDKDDYFLRYLLTPDQQEFGNRFVQEEFARHTDADAVAASIFYASWYEYVLQLASGVTAREMTEKEKRILTDEQKETLNSLRSAFLDLRSSQRPKYMP | not soluble
MAHHHHHHMGVKFIVEHMDDLEEWCILEYMHICEIVKDENIIFTKFKGNFKDISKSHEPKCYEKSIGDLKDEFGWNKICLLDMKAKDVLTCKDKNEIDFLLFGGILGNVPSNDRTSELRKFEFPISRNLGSVQMTTNTAVLVCHIILNDQVELENIPFVDNPDIVLKNNKESMMLPFRFVSKYYYTKCESDKNVPILPKNFKDYLIKLGDQQYNDLDSFF | soluble
MAHHHHHHMHFSQYPLRLTDLERQKLQLIVAALKVSEYTDDVDDFMRPYGKEGRMEAAMREFIDIVVGLAIASDAIPRSVKNSFLAGEVKVATVVPLLEDLFEIMRRHKRLNPFSHRGEFGKLMMMLQDVQKRSLQRALEIQSTLVIPVRTVEAALSSIYCETLVDDEAVRTDYLKRTGAEKQAGMQSLIERYGKGDEHKKEVIEHCLRSIDDVYSFIQSNTRPLRTLRRWLSRDFEPLPSDDVYSISIRHGRSGACFTHSHATHCQYVTESLLLWENVQKNILNLWEAAEDDMLVEGQGQYVVANTGQGFHRMCSAPKSYGVMSRLVRDTEQRMGGWVGIKVIHLGDRDVPNPLVFIDKYTVIPRLVKPVVQTLHALRYVLHEEDEEEEGQPQVAHEYDNYPGLRNLLRSKYHSYSELMMMILSDFFKHAFDGSGDDGGSCIDGRLTSAWNWCHQLHKKKYYDAFVLTGFAGFD | not soluble
MAHHHHHHMHNSVPASNTCSPFREETVSKRGKRSRGTGGDDKITRGTCSQPFSVITLPPGKLLEWLVCSPCRVYDVNLPRSRNNDNNISSLQCAVLPNFFVEYGGRSYSCVAKVCKPQLRKVLLRALAAVRQEMGSVDDIPHDSLLVVAVSPINAFSSECIHDASRTAMPRAREGCKIVGLCVARELSAPHRMHCESNWSHEKSEASGVGAAVQEGLGDCWEEDATRVGGTNNVRKAFCGVQLVWVADCYRRHGVAKVLVDTARRHISYGFEVPVERVAFSEPTSLGKLFAKSYSGRPDFLI | soluble
